Where a chain is given by its changes, count along the chain named. Names may count otherwise.

Data set [1] addresses endogenous tau of rat primary nerve cells, P19332.
The target in data set [2] is wild-type human tau overexpressed in H4-tau cells.

endogenous tau of rat primary nerve cells, P19332, sequence (P19332 2-752): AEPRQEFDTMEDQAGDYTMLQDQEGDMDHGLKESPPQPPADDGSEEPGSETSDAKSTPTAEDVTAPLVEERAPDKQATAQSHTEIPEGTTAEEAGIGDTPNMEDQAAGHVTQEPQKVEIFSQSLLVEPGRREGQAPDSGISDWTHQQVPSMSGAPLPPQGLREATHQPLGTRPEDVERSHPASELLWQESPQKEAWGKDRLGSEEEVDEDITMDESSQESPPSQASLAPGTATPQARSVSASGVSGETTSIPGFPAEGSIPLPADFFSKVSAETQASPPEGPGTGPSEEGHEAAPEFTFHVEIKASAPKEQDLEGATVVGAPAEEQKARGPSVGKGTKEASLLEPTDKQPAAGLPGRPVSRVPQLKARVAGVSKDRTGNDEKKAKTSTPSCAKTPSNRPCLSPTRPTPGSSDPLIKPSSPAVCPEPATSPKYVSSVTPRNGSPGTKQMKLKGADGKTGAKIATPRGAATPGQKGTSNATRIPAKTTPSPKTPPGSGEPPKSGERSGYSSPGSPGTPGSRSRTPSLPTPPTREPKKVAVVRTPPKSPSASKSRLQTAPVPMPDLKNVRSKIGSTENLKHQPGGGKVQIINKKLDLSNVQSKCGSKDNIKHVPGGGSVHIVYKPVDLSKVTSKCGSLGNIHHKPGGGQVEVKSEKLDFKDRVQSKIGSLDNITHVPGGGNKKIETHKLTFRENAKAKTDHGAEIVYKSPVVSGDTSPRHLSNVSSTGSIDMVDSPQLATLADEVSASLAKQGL

B1: human PRKX (hPRKXkai), overexpressed from pPRKXkai plasmid or PRKX overexpression lentivirus (protein)
chain: MEAPGLAQAAAAESDSRKVAEETPDGAPALCPSPEALSPEPPVYSLQDFDTLATVGTGTFGRVHLVKEKTAKHFFALKVMSIPDVIRLKQEQHVHNEKSVLKEVSHPFLIRLFWTWHDERFLYMLMEYVPGGELFSYLRNRGRFSSTTGLFYSAEIICAIEYLHSKEIVYRDLKPENILLDRDGHIKLTDFGFAKKLVDRTWTLCGTPEYLAPEVIQSKGHGRAVDWWALGILIFEMLSGFPPFFDDNPFGIYQKILAGKIDFPRHLDFHVKDLIKKLLVVDRTRRLGNMKNGANDVKHHRWFRSVDWEAVPQRKLKPPIVPKIAGDGDTSNFETYPENDWDTAAPVPQKDLEIFKNF
Consider B1, for which, in data set [1], the “amount of S214 phosphorylated tau, ELISA, PRKX lentivirus MOI 1” value was 3.0-fold, 4.2-fold and 6.3-fold enhanced amounts of S214 phosphorylated tau were found in the cells infected with PRKX overexpression lentivirus at MOI-1, 3 and 6, respectively; the “amount of S214 phosphorylated tau, ELISA, PRKX lentivirus MOI 3” value is 3.0-fold, 4.2-fold and 6.3-fold enhanced amounts of S214 phosphorylated tau were found in the cells infected with PRKX overexpression lentivirus at MOI-1, 3 and 6, respectively; the “amount of S214 phosphorylated tau, ELISA, PRKX lentivirus MOI 6” value is 3.0-fold, 4.2-fold and 6.3-fold enhanced amounts of S214 phosphorylated tau were found in the cells infected with PRKX overexpression lentivirus at MOI-1, 3 and 6, respectively. Also, in data set [2], the “S214 phosphorylation of tau, Western blot, 0.02 µg PRKX expression plasmid” value was 1.3-fold, 1.9-fold and 2.9-fold enhanced S214 phosphorylation was found in the cells incorporating 0.02 µg, 0.06 µg and 0.2 µg of PRKX expression plasmid, respectively; the “S214 phosphorylation of tau, Western blot, 0.06 µg PRKX expression plasmid” value is 1.3-fold, 1.9-fold and 2.9-fold enhanced S214 phosphorylation was found in the cells incorporating 0.02 µg, 0.06 µg and 0.2 µg of PRKX expression plasmid, respectively; the “S214 phosphorylation of tau, Western blot, 0.2 µg PRKX expression plasmid” value is 1.3-fold, 1.9-fold and 2.9-fold enhanced S214 phosphorylation was found in the cells incorporating 0.02 µg, 0.06 µg and 0.2 µg of PRKX expression plasmid, respectively; the “amount of S214 phosphorylated tau in the total tau, ELISA, 0.02 µg PRKX expression plasmid” value is 2.5-fold, 3.4-fold and 5.8-fold enhanced S214 phosphorylation was found in the cells incorporating 0.02 µg, 0.06 µg and 0.2 µg of PRKX expression plasmid, respectively. In data set [2], the “amount of S214 phosphorylated tau in the total tau, ELISA, 0.06 µg PRKX expression plasmid” value is 2.5-fold, 3.4-fold and 5.8-fold enhanced S214 phosphorylation was found in the cells incorporating 0.02 µg, 0.06 µg and 0.2 µg of PRKX expression plasmid, respectively; the “amount of S214 phosphorylated tau in the total tau, ELISA, 0.2 µg PRKX expression plasmid” value was 2.5-fold, 3.4-fold and 5.8-fold enhanced S214 phosphorylation was found in the cells incorporating 0.02 µg, 0.06 µg and 0.2 µg of PRKX expression plasmid, respectively.

B2: inactive PRKX protein without kinase activity (D172A), overexpressed from pD172A plasmid or D172A overexpression lentivirus (protein)
chain: B1 chain with D172A
With B2, in data set [1], the “amount of S214 phosphorylated tau, ELISA, D172A lentivirus MOI 1, 6” value was “D172A overexpression lentivirus and lacZ overexpression lentivirus did not show an enhanced amount of S214 phosphorylated tau”. In addition, the “S214 phosphorylation of tau, Western blot and ELISA” value in data set [2] was “enhanced S214 phosphorylation was not found in pD172A tranfected cell”.

The record behind these values is patent US20110294144.
